Measurements from the supplement of paper PMC6755084.

B1: F1*; the commonest letter at each place (parent)
chain: GAGACCGCAACTGAAAAGTTGTTATCACTTGTCGTAAGACACTTTGGATGGGTTGAAGTTCTGCACGTAGAAGCAAAAGGC

Variants of: B1
Experiment: fraction ligated after 30 min (ligated reads / total reads); higher = more ligase activity
Conditions: with F1*sub RNA substrate (template-directed ligation), 42 °C
Experimental: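 Chip-synthesised pool of F1* ligase ribozyme variants (all single and double substitutions, single, double and triple deletions in the catalytic core and GAA bulge, plus designed variants) was transcribed with T7 and reacted as a pool with excess substrate F1*sub for 30 min at 42 C in 50 mM EPPS pH 8.5, 25 mM MgCl2. Ligated and unligated bands were separated by PAGE, barcoded by RT and deep sequenced; fraction ligated = ligated reads / total reads per variant, relative activity = FL / FL of wild type (0.826). Sequences are the DNA template of the ribozyme.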
Work on T29C G31T yielded a fraction ligated of 0.755. T29C G31C was tested, and the fraction ligated was 0.804. With T29C G31A the fraction ligated was 0.796. T29G T30C was tested, and the fraction ligated was 0.828. With T29G T30A the fraction ligated was 0.823. In the case of T29G T30G, the fraction ligated is reported as 0.844. T29C G38C was tested, and the fraction ligated was 0.828. Work on T29C G38A yielded a fraction ligated of 0.803. For T29C G38T, the fraction ligated was 0.816. In the case of C28T G46T, the fraction ligated is reported as 0.788. With C28T G46C the fraction ligated was 0.8. C28T G46A was tested, and the fraction ligated was 0.802. For T29G A37C, the fraction ligated was 0.814. T29G A37G was tested, and the fraction ligated was 0.832. For T29G A37T, the fraction ligated was 0.828. Variant C28G C33G has a fraction ligated of 0.505. Variant C28G C33T has a fraction ligated of 0.786. C28G C33A was tested, and the fraction ligated was 0.757. C28G T44G was tested, and the fraction ligated was 0.778. C28G T44C was tested, and the fraction ligated was 0.778. C28G T44A was tested, and the fraction ligated was 0.791. In the case of T29C A57T, the fraction ligated is reported as 0.774. With T29C A57C the fraction ligated was 0.797. With T29C A57G the fraction ligated was 0.855. With T29G G46A the fraction ligated was 0.832. Work on T29G G46C yielded a fraction ligated of 0.786. T29G G46T gave a fraction ligated of 0.805. For C28G T43A, the fraction ligated was 0.807. For C28G T43G, the fraction ligated was 0.794. For C28G T43C, the fraction ligated was 0.798. T29C T30A gave a fraction ligated of 0.796. With T29C T30G the fraction ligated was 0.805. T29C T30C showed a fraction ligated of 0.782. Work on T29C G50C yielded a fraction ligated of 0.112. T29C G50A gave a fraction ligated of 0.116. In the case of T29C G50T, the fraction ligated is reported as 0.41. Variant T29A T43G has a fraction ligated of 0.85. T29A T43C gave a fraction ligated of 0.804. With T29A T43A the fraction ligated was 0.84. Work on T29A T45G yielded a fraction ligated of 0.475. Work on T29A T45A yielded a fraction ligated of 0.774. For T29A T45C, the fraction ligated was 0.651. With C28T G47T the fraction ligated was 0.3. C28T G47C showed a fraction ligated of 0.252. C28T G47A showed a fraction ligated of 0.787. With T29A A57T the fraction ligated was 0.813. Work on T29A A57C yielded a fraction ligated of 0.818. T29A A57G showed a fraction ligated of 0.818. In the case of T29A G46A, the fraction ligated is reported as 0.808. T29A G46T was tested, and the fraction ligated was 0.793. T29A G46C showed a fraction ligated of 0.779. Work on C28T T49G yielded a fraction ligated of 0.811. For C28T T49A, the fraction ligated was 0.743. Work on C28T T49C yielded a fraction ligated of 0.749. In the case of T29C G46C, the fraction ligated is reported as 0.775. With T29C G46T the fraction ligated was 0.779. T29C G46A gave a fraction ligated of 0.804. T29C T43A was tested, and the fraction ligated was 0.839. T29C T43G gave a fraction ligated of 0.815. T29C T43C gave a fraction ligated of 0.802. Work on C28T T44C yielded a fraction ligated of 0.783. C28T T44G showed a fraction ligated of 0.813. C28T T44A showed a fraction ligated of 0.816. T29A G50C was tested, and the fraction ligated was 0.195. For T29A G50A, the fraction ligated was 0.295. T29A G50T showed a fraction ligated of 0.585. For T29C A37G, the fraction ligated was 0.824. With T29C A37C the fraction ligated was 0.828. In the case of T29C A37T, the fraction ligated is reported as 0.833. With T29G G31T the fraction ligated was 0.835. T29G G31C gave a fraction ligated of 0.804. T29G G31A gave a fraction ligated of 0.836. With C28G A57G the fraction ligated was 0.791. For C28G A57T, the fraction ligated was 0.79. Variant T29C A41T has a fraction ligated of 0.788. With T29C A41C the fraction ligated was 0.768. In the case of T29C A41G, the fraction ligated is reported as 0.766. C28G G46C was tested, and the fraction ligated was 0.792. C28G G46T gave a fraction ligated of 0.771. C28G G46A was tested, and the fraction ligated was 0.811. T29C G47T was tested, and the fraction ligated was 0.508. Variant T29C G47C has a fraction ligated of 0.264. T29C G47A was tested, and the fraction ligated was 0.793. T29C A39G showed a fraction ligated of 0.824. T29C A39C was tested, and the fraction ligated was 0.819. With T29C A39T the fraction ligated was 0.807. Variant C28T G50A has a fraction ligated of 0.352. For C28T G50T, the fraction ligated was 0.747. In the case of C28T G50C, the fraction ligated is reported as 0.323. In the case of T29G C33G, the fraction ligated is reported as 0.865. T29G C33T gave a fraction ligated of 0.808. Variant T29G C33A has a fraction ligated of 0.85. Work on C28T yielded a fraction ligated of 0.812. In the case of T29C T49G, the fraction ligated is reported as 0.66. For T29C T49C, the fraction ligated was 0.104. For T29C T49A, the fraction ligated was 0.62. In the case of T29C T45A, the fraction ligated is reported as 0.554. For T29C T45G, the fraction ligated was 0.239. For T29C T45C, the fraction ligated was 0.471. Variant C28T T45A has a fraction ligated of 0.532. C28T T45G showed a fraction ligated of 0.0616. With C28T T45C the fraction ligated was 0.284. Variant T29G A39C has a fraction ligated of 0.822. With T29G A39T the fraction ligated was 0.822. T29G A39G was tested, and the fraction ligated was 0.819. In the case of T29G A56T, the fraction ligated is reported as 0.793. Work on T29G A56C yielded a fraction ligated of 0.787. In the case of T29G A56G, the fraction ligated is reported as 0.749. T29G A36C was tested, and the fraction ligated was 0.825. T29G A36G was tested, and the fraction ligated was 0.823. Variant T29G A36T has a fraction ligated of 0.826. T29C T35C was tested, and the fraction ligated was 0.801. T29C T35A gave a fraction ligated of 0.843. For T29C T35G, the fraction ligated was 0.831. In the case of T29C G55C, the fraction ligated is reported as 0.638. T29C G55A was tested, and the fraction ligated was 0.815. Work on T29C G55T yielded a fraction ligated of 0.765. In the case of C28T T32A, the fraction ligated is reported as 0.822. Work on C28T T32G yielded a fraction ligated of 0.8. With C28T T32C the fraction ligated was 0.753. Work on C28G G47T yielded a fraction ligated of 0.591. With C28G G47C the fraction ligated was 0.484. In the case of C28G G47A, the fraction ligated is reported as 0.763. C28G C40A gave a fraction ligated of 0.791. C28G C40T was tested, and the fraction ligated was 0.806. C28G C40G showed a fraction ligated of 0.812. For T29A A41G, the fraction ligated was 0.816. Variant T29A A41T has a fraction ligated of 0.827. T29A A41C gave a fraction ligated of 0.801. With C28T C42A the fraction ligated was 0.805. Work on C28T C42T yielded a fraction ligated of 0.819. Work on C28T C42G yielded a fraction ligated of 0.813. In the case of C28T T35G, the fraction ligated is reported as 0.785. Work on C28T T35A yielded a fraction ligated of 0.802. In the case of C28T T35C, the fraction ligated is reported as 0.789. Work on C28T T30A yielded a fraction ligated of 0.814. With C28T T30G the fraction ligated was 0.791. In the case of C28T T30C, the fraction ligated is reported as 0.805. Variant T29C A56C has a fraction ligated of 0.758. Variant T29C A56G has a fraction ligated of 0.788. Work on T29C A56T yielded a fraction ligated of 0.795. C28T A48C gave a fraction ligated of 0.606. C28T A48G showed a fraction ligated of 0.788. C28T A48T showed a fraction ligated of 0.709. C28T A36G gave a fraction ligated of 0.81. Variant C28T A36C has a fraction ligated of 0.801. For C28T A36T, the fraction ligated was 0.799. For C28T C40A, the fraction ligated was 0.824. For C28T C40G, the fraction ligated was 0.81. In the case of C28T C40T, the fraction ligated is reported as 0.796. Variant T29A C42G has a fraction ligated of 0.867. T29A C42A was tested, and the fraction ligated was 0.86. T29A C42T showed a fraction ligated of 0.826. With T29A A56G the fraction ligated was 0.789. T29A A56C was tested, and the fraction ligated was 0.799. T29A A56T gave a fraction ligated of 0.827. In the case of T29A T30C, the fraction ligated is reported as 0.856. For T29A T30G, the fraction ligated was 0.828. Variant T29A T30A has a fraction ligated of 0.86. For T29A, the fraction ligated was 0.848. Variant T29G has a fraction ligated of 0.829. T29C showed a fraction ligated of 0.824. C28G T30A gave a fraction ligated of 0.802. C28G T30G was tested, and the fraction ligated was 0.788. C28G T30C was tested, and the fraction ligated was 0.794. Work on C28T T43A yielded a fraction ligated of 0.803. For C28T T43G, the fraction ligated was 0.8.
